Results as given in PMC12095580, “Wnt signalosome assembly is governed by conformational flexibility of Axin and by the AP2 clathrin adaptor” (Nature Communications, 2025).

B1: LRP6-GFP [not stated] / FLAG-AP2μ [not stated] (parent complex)
chain 1: APLLLYANRRDLRLVDATNGKENATIVVGGLEDAAAVDFVFSHGLIYWSDVSEEAIKRTEFNKTESVQNVVVSGLLSPDGLACDWLGEKLYWTDSETNRIEVSNLDGSLRKVLFWQELDQPRAIALDPSSGFMYWTDWGEVPKIERAGMDGSSRFIIINSEIYWPNGLTLDYEEQKLYWADAKLNFIHKSNLDGTNRQAVVKGSLPHPFALTLFEDILYWTDWSTHSILACNKYTGEGLREIHSDIFSPMDIHAFSQQRQPNATNPCGIDNGGCSHLCLMSPVKPFYQCACPTGVKLLENGKTCKDGATELLLLARRTDLRRISLDTPDFTDIVLQLEDIRHAIAIDYDPVEGYIYWTDDEVRAIRRSFIDGSGSQFVVTAQIAHPDGIAVDWVARNLYWTDTGTDRIEVTRLNGTMRKILISEDLEEPRAIVLDPMVGYMYWTDWGEIPKIERAALDGSDRVVLVNTSLGWPNGLALDYDEGKIYWGDAKTDKIEVMNTDGTGRRVLVEDKIPHIFGFTLLGDYVYWTDWQRRSIERVHKRSAEREVIIDQLPDLMGLKATNVHRVIGSNPCAEENGGCSHLCLYRPQGLRCACPIGFELISDMKTCIVPEAFLLFSRRADIRRISLETNNNNVAIPLTGVKEASALDFDVTDNRIYWTDISLKTISRAFMNGSALEHVVEFGLDYPEGMAVDWLGKNLYWADTGTNRIEVSKLDGQHRQVLVWKDLDSPRALALDPAEGFMYWTEWGGKPKIDRAAMDGSERTTLVPNVGRANGLTIDYAKRRLYWTDLDTNLIESSNMLGLNREVIADDLPHPFGLTQYQDYIYWTDWSRRSIERANKTSGQNRTIIQGHLDYVMDILVFHSSRQSGWNECASSNGHCSHLCLAVPVGGFVCGCPAHYSLNADNRTCSAPTTFLLFSQKSAINRMVIDEQQSPDIILPIHSLRNVRAIDYDPLDKQLYWIDSRQNMIRKAQEDGSQGFTVVVSSVPSQNLEIQPYDLSIDIYSRYIYWTCEATNVINVTRLDGRSVGVVLKGEQDRPRAVVVNPEKGYMYFTNLQERSPKIERAALDGTEREVLFFSGLSKPIALALDSRLGKLFWADSDLRRIESSDLSGANRIVLEDSNILQPVGLTVFENWLYWIDKQQQMIEKIDMTGREGRTKVQARIAQLSDIHAVKELNLQEYRQHPCAQDNGGCSHICLVKGDGTTRCSCPMHLVLLQDELSCGEPPTCSPQQFTCFTGEIDCIPVAWRCDGFTECEDHSDELNCPVCSESQFQCASGQCIDGALRCNGDANCQDKSDEKNCEVLCLIDQFRCANGQCIGKHKKCDHNVDCSDKSDELDCYPTEEPAPQATNTVGSVIGVIVTIFVSGTVYFICQRMLCPRMKGDGETMTNDYVVHGPASVPLGYVPHPSSLSGSLPGMSRGKSMISSLSIMGGSSGPPYDRAHVTGASSSSSSSTKGTYFPAILNPPPSPATERSHYTMEFGYSSNSPSTHRSYSYRPYSYRHFAPPTTPCSTDVCDSDYAPSRRMTSVATAKGYTSDLNYDSEPVPPPPTPRSQYLSAEENYESCPPSPYTERSYSHHLYPPPPSPCTDSS
chain 2: MIGGLFIYNHKGEVLISRVYRDDIGRNAVDAFRVNVIHARQQVRSPVTNIARTSFFHVKRSNIWLAAVTKQNVNAAMVFEFLYKMCDVMAAYFGKISEENIKNNFVLIYELLDEILDFGYPQNSETGALKTFITQQGIKSQHQTKEEQSQITSQVTGQIGWRREGIKYRRNELFLDVLESVNLLMSPQGQVLSAHVSGRVVMKSYLSGMPECKFGMNDKIVIEKQGKGTADETSKSGKQSIAIDDCTFHQCVRLSKFDSERSISFIPPDGEFELMRYRTTKDIILPFRVIPLVREVGRTKLEVKVVIKSNFKPSLLAQKIEVRIPTPLNTSGVQVICMKGKAKYKASENAIVWKIKRMAGMKESQISAEIELLPTNDKKKWARPPISMNFEVPFAPSGLKVRYLKVFEPKLNYSDHDVIKWVRYIGRSGIYETRC

Variants of: B1
Assay: coIP (FLAG IP, α-GFP blot densitometry)

Row | Variant | ratio to parent
1 | chain 1 Y1498A, chain 1 Y1501A | 0.58
2 | chain 1 S1560A | 0.69
3 | chain 1 Y1503A | 0.21
4 | chain 1 Y1498A, chain 1 Y1501A, chain 1 Y1503A, chain 1 F1506A | 0.05
5 | chain 1 Y1503A, chain 1 F1506A | 0.31
